Key:
[1] = target: T1, PfSir2A (Plasmodium falciparum) (UniProt Q8IE47); test: EMSA; conditions: room temperature
T1 sequence: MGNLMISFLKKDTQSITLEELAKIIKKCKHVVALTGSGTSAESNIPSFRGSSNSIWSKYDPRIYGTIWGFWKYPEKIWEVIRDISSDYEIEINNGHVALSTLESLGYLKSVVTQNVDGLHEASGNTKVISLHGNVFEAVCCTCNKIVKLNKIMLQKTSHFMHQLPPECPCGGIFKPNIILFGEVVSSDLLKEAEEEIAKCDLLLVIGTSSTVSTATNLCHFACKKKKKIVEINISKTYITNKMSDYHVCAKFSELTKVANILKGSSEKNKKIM

PfSir2A [2] = target: T2, PfSir2A (Plasmodium falciparum, UniProt Q8IE47); test: HPLC demyristoylation assay with H3K9Myr peptide; type: biochemical
T2 sequence (Q8IE47 1-273): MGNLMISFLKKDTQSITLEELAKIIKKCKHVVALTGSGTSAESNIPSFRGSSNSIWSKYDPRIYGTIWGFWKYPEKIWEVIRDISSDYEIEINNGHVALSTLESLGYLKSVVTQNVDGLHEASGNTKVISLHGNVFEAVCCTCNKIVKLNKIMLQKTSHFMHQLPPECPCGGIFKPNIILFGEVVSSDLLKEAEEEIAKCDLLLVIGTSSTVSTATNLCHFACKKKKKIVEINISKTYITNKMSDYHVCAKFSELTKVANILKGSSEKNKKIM

PfSir2A [3] = target: T2, PfSir2A; test: HPLC deacetylation assay with H3K9Ac peptide; type: biochemical
PfSir2A [4] = target: T3, PfSir2A (Plasmodium falciparum, UniProt Q8IE47 1-273); test: MST
T3 sequence: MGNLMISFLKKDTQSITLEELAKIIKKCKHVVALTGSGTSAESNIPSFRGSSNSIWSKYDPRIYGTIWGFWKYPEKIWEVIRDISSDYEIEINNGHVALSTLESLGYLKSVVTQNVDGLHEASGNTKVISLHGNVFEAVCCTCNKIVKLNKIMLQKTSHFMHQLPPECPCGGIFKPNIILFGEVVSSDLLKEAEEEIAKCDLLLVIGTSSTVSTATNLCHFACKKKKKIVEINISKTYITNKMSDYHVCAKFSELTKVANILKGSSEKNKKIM

Question: How did the Kd ([1]; […]) / MST buffer) turn out when “601 nucleosome assembly sequence DNA, 147 bp” was run?
Answer: Its Kd is 4000 nM.

Question: H3K9Ac dNuc (601-positioned nucleosome) was tested. Which Kd ([1]; H3K9Ac on histone H3; […]) / MST buffer) did it give?
Answer: Its Kd is 1400 nM.

Question: For CCCCCCCCCCCCCC(=O)O [myristic acid], which IC50 (PfSir2A [2]) is on record?
Answer: Its IC50 is 107 ± 15 µM.

Question: How did the IC50 (PfSir2A [3]) turn out when c1cncc(-c2c[nH]nn2)c1 [3-TYP] was run?
Answer: The IC50 was ~59.6 µM.

Question: Which IC50 (PfSir2A [3]) does the source give for NC(=O)c1ccc[n+]([C@@H]2O[C@H](CO)[C@@H](O)[C@H]2O)c1 [nicotinamide riboside] here?
Answer: Its IC50 is 155 ± 14.9 µM.

Question: With GAAGTCGGGGATGGCAGAGGCAGTGCT (ssDNA) [ssDNA (MST)] as the molecule, how does the Kd (PfSir2A [4]) read?
Answer: The Kd was 138 nM.
